Experimental data published in patent US20240317852A1 (Molecular Partners, published 2024).

How the values were obtained:
[1] = biological target: T1, biotinylated human CD33 full-length extracellular domain (residues 18-259) with C-terminal Fc tag and Avi tag (human, UniProt P20138 18-259, biotinylated with BirA-GST (Avi tag)); test: SPR (ProteOn XPR36), biotinylated full-length CD33 ECD on NLC chip, DARPin at 50 nM, single trace
T1 construct: Bought from Evitria; also called bio.hCD33; bio.hCD33 full-length target; not shown: C-terminal Fc tag and Avi tag
T1 sequence (P20138 18-259 R69G limits assumed): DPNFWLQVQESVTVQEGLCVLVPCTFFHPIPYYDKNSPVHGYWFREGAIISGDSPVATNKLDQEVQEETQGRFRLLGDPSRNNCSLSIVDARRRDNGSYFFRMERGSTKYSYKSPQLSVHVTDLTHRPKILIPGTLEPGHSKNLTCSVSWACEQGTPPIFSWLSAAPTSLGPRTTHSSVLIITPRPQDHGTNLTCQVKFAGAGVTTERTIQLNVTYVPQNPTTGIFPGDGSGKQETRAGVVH
Protocol: Briefly, SPR measurements were performed using a ProteOn XPR36 instrument (BioRad). The running buffer was PBS pH 7.4 containing 0.005% Tween 20® (PBST). The bio.hCD33 full-length target (SEQ ID NO: 60) was immobilized on NLC chips (BioRad) to a level of 540 RU and the spliced variant (SEQ ID NO: 61) to a level of 560RU. The interaction of the 96 well purified CD33-specific binding proteins in TCE format to the full-length and the spliced variant of CD33 ECD were measured by injecting the binding protein at 50 nM with an association of 120s and dissociation of 1200s using a constant flow of […]. The target was regenerated between the individual measurements using 2M MgCl₂. The signals were double referenced against the running buffer (PBST) treated control lane.
Dissociation constants (KD) were calculated from the estimated on- and off-rates using standard procedures known to the person skilled in the art. […] The values in Table 2a are averages of multiple replicates.

[2] = biological target: T2, human CD33 expressed on Molm-13 tumor cells (human, UniProt P20138 18-364); test: flow cytometry on CD33-expressing Molm-13 N1 cells, anti-DARPin antibody detection
T2 construct: whole, on cells; also called CD33 expressed on the surface of cells; CD33-expressing tumor cells (Molm-13 N1)
T2 sequence (P20138 18-364): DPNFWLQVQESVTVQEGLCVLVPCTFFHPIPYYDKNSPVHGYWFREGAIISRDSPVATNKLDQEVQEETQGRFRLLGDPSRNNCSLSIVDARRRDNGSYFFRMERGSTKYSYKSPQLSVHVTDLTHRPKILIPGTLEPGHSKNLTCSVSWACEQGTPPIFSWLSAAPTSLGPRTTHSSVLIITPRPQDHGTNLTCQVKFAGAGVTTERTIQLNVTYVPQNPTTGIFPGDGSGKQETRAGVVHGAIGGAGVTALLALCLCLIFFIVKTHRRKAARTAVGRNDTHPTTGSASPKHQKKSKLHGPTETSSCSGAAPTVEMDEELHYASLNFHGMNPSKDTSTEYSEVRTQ
Protocol: Binding of binding proteins of the invention to CD33 expressed on the surface of cells was analyzed by fluorescence activated cell sorting (FACS) flow cytometry. For this purpose. CD33-expressing tumor cells (Molm-13 N1) were seeded at 100,000 cells per well in a 96 well plate. DARPin® protein #2, DARPin protein #29, and DARPin® protein #30, in monospecific format, were titrated down In 1:5 dilution ratio starting at 2000 nM. Tumor cells were resuspended with diluted DARPin proteins and incubated for 60 minutes at 4° C. The assay was performed in PBS Including 2% fetal bovine serum without human serum albumin (HSA). After washing twice with Phosphate Buffer saline (PBS), DARPin® protein specific tumor call binding was detected by adding unlabeled primary […] (anti-rabbit 1-1-1 antibody, CePower) at 2 μg/ml. An incubation step of at least 30 minutes at 4° C. followed. Afterwards, cells were washed with PBS and a secondary goat anti-rabbit antibody labelled with Alexa Fluor 488 antibody (ThermoFisher) at 2 ug/ml was added. The same incubation conditions applied. Finally, the cells were washed twice and resuspended in Cytofix fixation buffer (BD Biosciences) for 15 min at room temperature (RT).

[3] = biological target: T1, biotinylated human CD33 full-length …; test: SPR (ProteOn), bio.hCD33 full length on NLC chip, DARPin at 100 nM, 1:1 Langmuir fit
Protocol: Moreover, the binding affinities of two additional purified ankyrin repeat proteins on recombinant human CD33 target were measured and analyzed with a similar procedure as described above for DARPin proteins #1, #3, #6, #7-#9 and #14-#16. Briefly, bio.hCD33 was coaled on NLC chip (BioRad) to a level of 1180 RU. DARPin® protein #29 and DARPin® protein #30 were applied as analyte at a single concentration of 100 nM with a 120 s association and 1200 s dissociation phase at a constant flow of 100 ul/min. The target was regenerated with 4M MgCl2. The signals were double referenced against the running buffer (PBST-PBS pH 7.4 containing 0.005% Tween 200) treated control lane of L1 and A6. The 1:1 Langmuir model was used for the fitting.

[4] = biological target: T1, biotinylated human CD33 full-length …; test: HTRF
[5] = biological target: T2, human CD33 expressed on Molm-13 tumor …; test: flow cytometry on MOLM13 cells

B1: DARPin® protein #7 in TCE format (formatted with a CD3-specific ankyrin repeat domain) (designed binder)
chain: MRGSHHHHHHGSDLGLKLLRAAYDGQDDEVRILLAAGADVNAKDWQGFTPLHYAAVLGHLEIVEVLLKAGADVNAKDQEGATPLHLAALHGHLEIVEVLLKAGADVNAQDESGWTPADLAAKWGHEDIAEVLQKAA
notes: Crude extract HTRF construct also carried a C-terminal Flag tag; not shown: which one,
[1]
  Kd: 0.47 nM

B2: DARPin® protein #29 in monospecific (single domain) format (designed binder)
chain: MRGSHHHHHHGSDLGVKLLLAAERGQLDEVRILLKAGADVNAKDIAEGYTPLHIAAYQGHLEIVEVLLKAGADVNAKDRYGKTPLHLAAIGGHLEIVEVLLKAGADVNAQDNKGSTPADLAADYGHQDIAEVLQKAA
notes: the same molecule is used here
[2]
  EC50: 0.32 nM
[3]
  Kd: 0.62 nM

B3: DARPin® protein #2 in monospecific (single domain) format (designed binder)
chain: MRGSHHHHHHGSDLGVKLLLAASRGQLDEVRILLKAGADVNAKDIDEGYTPLHIAAYYGHLEIVEVLLKAGADVNAKDRYGKTPLHLAAISGHLEIVEVLLKAGADVNAQDDKGDTPADLAADYGHQDIAEVLQKAA
[2]
  EC50: 1.2 nM

B4: DARPin® protein #30 in monospecific (single domain) format (designed binder)
chain: MRGSHHHHHHGSDLGKKLLLAAERGQLDEVRILLKAGADVNAKDRAEGYTPLHIAAYQGHLEIVEVLLKAGADVNAKDRYGKTPLHLAAISGHLEIVEVLLKAGADVNAQDNKGSTPADLAADYGHQDIAEVLQKAA
notes: as for B2
[2]
  EC50: 1.9 nM
[3]
  Kd: 0.88 nM

B5: DARPin® protein #10 (engineered variant of DARPin® protein #9) (designed binder)
chain: DLGYKLLWAASAGQDDEVRELLKAGADVNAKDKDGATPLHFAAAKGHLEIVEVLLKAGADVNAKDNRGATPLHYAAASGHLEIVEVLLKAGADVNAQDEWGNTPADLAAIYGHGDIAEVLQKAA
[4]
  binding result: binds
[5]
  binding result: binds

B6: DARPin® protein #13 (engineered variant of DARPin® protein #9) (designed binder)
chain: DLGYKLLWAASAGQDDEVRELLKAGADVNAKDKDGATPLHFAAAKGHLEIVEVLLKAGADVNAKDNRGATPLHYAAASGHLEIVEVLLKAGADVNAQDEWGNTPADLAAIYGHEDIAEVLQKAA
[4]
  binding result: binds
[5]
  binding result: binds

B7: DARPin® protein #11 (engineered variant of DARPin® protein #9) (designed binder)
chain: DLGYKLLWAASAGQDDEVRELLKAGADVNAKDKDGATPLHFAAAKGHLEIVEVLLKAGADVNAKDNRGATPLHYVAAASGHLEIVEVLLKAGADVNAQDEWGNTPADLAAIYGHEDIAEVLQKAA
[4]
  binding result: binds
[5]
  binding result: binds

B8: DARPin® protein #12 (engineered variant of DARPin® protein #9) (designed binder)
chain: DLGVKLLWAASAGQDDEVRELLKAGADVNAKDKDGATPLHFAAAKGHLEIVEVLLKAGADVNAKDNRGATPLHYVAAASGHLEIVEVLLKAGADVNAQDEWGNTPADLAAIYGHGDIAEVLQKAA
[4]
  binding result: binds
[5]
  binding result: binds

B9: DARPin® protein #9 in TCE format (formatted with a CD3-specific ankyrin repeat domain) (designed binder)
chain: MRGSHHHHHHGSDLGYKLLWAASAGQDDEVRILLAAGADVNAKDKDGATPLHFAAAKGHLEIVEVLLKAGADVNAKDNRGATPLHYVAAASGHLEIVEVLLKAGADVNAQDEWGNTPADLAAIYGHGDIAEVLQKAA
notes: as for B1
[1]
  Kd: 0.76 nM

B10: DARPin® protein #15 in TCE format (formatted with a CD3-specific ankyrin repeat domain) (designed binder)
chain: MRGSHHHHHHGSDLGKKLLQAARAGQLDEVRELLKAGADVNAKDLIGWTPLHLAAHYGHLEIVEVLLKAGADVNAKDAQGWTPLHIAAWEGHLEIVEVLLKAGADVNAKDWTGETPLHLAAFEGHLEIVEVLLKAGADVNAQDKSGKTPADLAARAGHQDIAEVLQKAA
notes: as for B1
[1]
  Kd: 17 nM

B11: DARPin® protein #5 in TCE format (formatted with a CD3-specific ankyrin repeat domain) (designed binder)
chain: MRGSHHHHHHGSDLSKKLLQAARAGQLDEVRELLKAGADVNAKDQIGQTPLHLAAQSGHLEIVEVLLKAGADVNAKDTEGWTPLHVAAWEGHLEIVEVLLKAGADVNAKDWTGETPLHLAAYQGHLEIVEVLLKAGADVNAQDKSGKTPADLAARAGHQDIAEVLQKAA
notes: as for B1
[1]
  Kd: 12 nM

B12: DARPin® protein #3 in TCE format (formatted with a CD3-specific ankyrin repeat domain) (designed binder)
chain: MRGSHHHHHHGSDLGVKLLRAAFHGQDDEVRILLAAGADVNAKDTDGETPLHYAAQFGHLEIVEVLLKAGADVNAKDAYGATPLHWAAWHGHLEIVEVLLKAGADVNAQDVSGATPADLAAKVGHEDIAEVLQKAA
notes: as for B1
[1]
  Kd: 7.4 nM

B13: DARPin® protein #8 in TCE format (formatted with a CD3-specific ankyrin repeat domain) (designed binder)
chain: MRGSHHHHHHGSDLGWKLLSAATLGQDDEVRILLAAGADVNAKDEWGKTPLHWAASTGHLEIVEVLLKAGADVNAKDLWGHTPLHEAAAKGHLEIVEVLLKAGADGNAQDNIGDTPADLAAYQGHEDIAEVLQKAA
notes: as for B1
[1]
  Kd: 2.3 nM

B14: DARPin® protein #1 in TCE format (formatted with a CD3-specific ankyrin repeat domain) (designed binder)
chain: MRGSHHHHHHGSDLGWKLLLAASRGQDDEVRILLAAGADVNAKDIDEGYTPLHIAAYYGHLEIVEVLLKAGADVNAKDRYGKTPLHLAAISGHEDIAEVLLKAGADVNAQDDKGDTPADLAADYGHEDIAEVLQKAA
notes: not shown: which one,
[1]
  Kd: 4.8 nM

B15: DARPin® protein #14 in TCE format (formatted with a CD3-specific ankyrin repeat domain) (designed binder)
chain: MRGSHHHHHHGSDLGWKLLNAAIAGQDDEVRILLAAGADVNAKDTEYGWTPLHIAASDGHLEIVEVLLKAGADVNAKDYAGSTPLHAAAFVGHLEIVEVLLKAGADVNAQDHQGQTPADLAAQQGHVDIAEVLQKAA
notes: as for B1
[1]
  Kd: 0.64 nM
